We go through one molecule from article PMC12443421.

For one data set, the target named is T1, KDM5A-K152E (UniProt P29375 1-801, K152E).
T1 sequence: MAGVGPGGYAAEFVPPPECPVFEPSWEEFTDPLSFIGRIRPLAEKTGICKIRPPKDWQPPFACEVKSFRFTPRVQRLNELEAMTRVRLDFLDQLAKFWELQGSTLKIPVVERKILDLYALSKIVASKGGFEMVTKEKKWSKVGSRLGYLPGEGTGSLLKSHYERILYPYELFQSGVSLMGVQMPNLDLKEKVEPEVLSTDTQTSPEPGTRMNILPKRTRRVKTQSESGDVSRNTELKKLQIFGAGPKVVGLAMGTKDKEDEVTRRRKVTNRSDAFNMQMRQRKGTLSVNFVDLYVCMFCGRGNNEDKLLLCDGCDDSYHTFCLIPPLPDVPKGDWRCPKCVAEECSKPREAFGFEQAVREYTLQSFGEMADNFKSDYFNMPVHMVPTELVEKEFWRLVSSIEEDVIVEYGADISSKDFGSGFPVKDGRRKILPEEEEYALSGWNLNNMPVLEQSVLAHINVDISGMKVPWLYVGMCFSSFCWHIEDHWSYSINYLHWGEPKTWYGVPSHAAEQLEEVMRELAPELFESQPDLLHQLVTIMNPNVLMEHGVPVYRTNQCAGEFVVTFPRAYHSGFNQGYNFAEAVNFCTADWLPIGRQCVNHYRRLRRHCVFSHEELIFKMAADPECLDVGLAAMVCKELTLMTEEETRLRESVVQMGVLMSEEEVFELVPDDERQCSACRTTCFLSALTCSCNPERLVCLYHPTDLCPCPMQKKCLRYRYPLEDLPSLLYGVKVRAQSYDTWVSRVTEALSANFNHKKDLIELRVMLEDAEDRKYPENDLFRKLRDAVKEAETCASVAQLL
The data set is described as follows: EMSA; Nucleosome EMSA: 100 nM nucleosome, 50 mM HEPES pH 7.5, 50 mM KCl, 1 mM BME, 0.01% Tween-20, 0.01% BSA, 5% sucrose, 1 h on ice, gel at 4 C; DNA EMSA: 100 nM DNA, TE with 10% glycerol, gel at 4 C. The following applies: protein: recombinant; tags: 6xHis removed by TEV; blunt.

The target in the next data set is T2, KDM5A-MutR (UniProt P29375 1-801, R210A;R217A;R219A;R220A;R232A;R264A;R265A;R266A;R271A;R280A;R282A).
T2 sequence: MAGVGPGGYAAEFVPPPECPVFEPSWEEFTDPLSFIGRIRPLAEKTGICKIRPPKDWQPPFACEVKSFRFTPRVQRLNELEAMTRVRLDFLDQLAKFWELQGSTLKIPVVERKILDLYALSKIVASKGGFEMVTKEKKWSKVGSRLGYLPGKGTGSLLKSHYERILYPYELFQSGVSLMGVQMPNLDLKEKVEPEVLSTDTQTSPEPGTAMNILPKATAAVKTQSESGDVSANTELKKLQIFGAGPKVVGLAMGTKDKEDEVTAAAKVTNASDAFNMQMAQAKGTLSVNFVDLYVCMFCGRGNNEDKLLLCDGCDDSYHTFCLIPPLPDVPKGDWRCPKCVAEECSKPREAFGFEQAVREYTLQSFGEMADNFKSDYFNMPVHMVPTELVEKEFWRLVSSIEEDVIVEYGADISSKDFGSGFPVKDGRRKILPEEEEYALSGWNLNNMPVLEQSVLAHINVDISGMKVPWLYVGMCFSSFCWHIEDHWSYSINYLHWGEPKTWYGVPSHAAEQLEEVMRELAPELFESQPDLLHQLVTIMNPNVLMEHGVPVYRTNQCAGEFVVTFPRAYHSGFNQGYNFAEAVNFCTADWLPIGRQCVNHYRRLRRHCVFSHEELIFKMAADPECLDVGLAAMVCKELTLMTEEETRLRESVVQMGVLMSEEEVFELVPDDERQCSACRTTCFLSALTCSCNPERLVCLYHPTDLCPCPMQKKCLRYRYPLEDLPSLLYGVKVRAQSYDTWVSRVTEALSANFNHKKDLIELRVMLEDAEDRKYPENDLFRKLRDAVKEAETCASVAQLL
The description is as above. The following applies: protein: recombinant; tags: 6xHis removed by TEV; blunt.

B1: ARID-C1 (dsDNA)
DNA 1: GGGCTCCCGCCCCACGAAAAG
DNA 2: CTTTTCGTGGGGCGGGAGCCC
Consider B1, for which the binding signal with KDM5A-K152E and with KDM5A-MutR was ~3 fold lower affinity than KDM5A-CAT throughout.
